Sequences and labels used below:
B1: O95428 427-441 (peptide)
chain: SAGLPGKPPAIQAS
B2: P22459 237-250 (peptide)
chain: SGGRLKRPVNVPFD
B3: Q9Y6H5 853-866 (peptide)
chain: SGDQLKRPFGAFRS
B4: Q9H677 423-436 (peptide)
chain: SEAAPRRPEATAAP
B5: Q9H254 103-116 (peptide)
chain: SGEQLPRPTRGRMR
B6: Q9BXQ5 597-610 (peptide)
chain: SEPHIKRPMNAFMV
B7: O95978 26-39 (peptide)
chain: SGAEIKRPGASVKV
B8: Q9BYS4 74-87 (peptide)
chain: SGGRLRRPAHVPLD
B9: Q9BTX9 18-31 (peptide)
chain: AWQQLRRPEASETL
B10: Q9Y4G2 445-458 (peptide)
chain: SEDDFYRPSREQPL
B11: O00529 218-231 (peptide)
chain: SFSELVRPFKSNKS
B12: Q08043 87-100 (peptide)
chain: SGERLPRPDKGKMR
B13: Q96MG2 305-318 (peptide)
chain: AWVSPRRPDEEQRP
B14: Q9ULT6 127-140 (peptide)
chain: SEDPLKRPVVYVKG
B15: Q03519 474-487 (peptide)
chain: SFAYPNRPDRPVLK
B16: O15229 449-462 (peptide)
chain: SFLSLRRPWNWIAH
B17: Q9BT81 41-54 (peptide)
chain: SESRIRRPMNAFMV
B18: O14810 90-103 (peptide)
chain: SEGSLTRPKKAIPP
B19: Q16322 147-160 (peptide)
chain: SGGKIRRPANVPID
B20: Q09470 98-111 (peptide)
chain: SGGRLRRPVNVPLD
B21: Q96T17 281-294 (peptide)
chain: SGGIPKRPSSPVIS
B22: P22001 113-126 (peptide)
chain: SGGRIRRPVNVPID
B23: Q9UGJ0 207-221 (peptide)
chain: SFQSPTRPPLASPT
B24: Q9H6A9 133-146 (peptide)
chain: SFLTLTRPDRALVR
B25: O43190 163-176 (peptide)
chain: SFSHLKRPQQGAGN
B26: Q9H1Y5 130-143 (peptide)
chain: SFLRLRRPWNWIAH
B27: O76050 230-243 (peptide)
chain: SFTALRRPSLRREA
B28: P54259 267-281 (peptide)
chain: SGAPPTKPPTTPVG

One assay addresses T1, amphyphisin SH3 (AMPH_HUMAN), P49418.
T1 chain: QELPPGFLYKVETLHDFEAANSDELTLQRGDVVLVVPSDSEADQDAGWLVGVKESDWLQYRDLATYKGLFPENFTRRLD
Put plainly: SPOT array.
B1 returned a normalised SPOT signal, Boehringer light units (BLU); mean over the file's lines of this peptide of 42.4.
On to B2, for which the normalised SPOT signal, Boehringer light units (BLU); mean over the file's lines of this peptide was determined as 11.4.
With B3, the normalised SPOT signal, Boehringer light units (BLU); mean over the file's lines of this peptide turned out to be 20.6.
As for B4, the normalised SPOT signal, Boehringer light units (BLU); mean over the file's lines of this peptide came out at 26.1.
Turning to B5, the normalised SPOT signal, Boehringer light units (BLU); mean over the file's lines of this peptide came to 873.
Turning to B6, the normalised SPOT signal, Boehringer light units (BLU); mean over the file's lines of this peptide stood at 32.
B7 registered a normalised SPOT signal, Boehringer light units (BLU); mean over the file's lines of this peptide of 34.4.
Turning to B8, the normalised SPOT signal, Boehringer light units (BLU); mean over the file's lines of this peptide came out at 20.8.
B9 displayed a normalised SPOT signal, Boehringer light units (BLU); mean over the file's lines of this peptide of 29.3.
Take B10: the normalised SPOT signal, Boehringer light units (BLU); mean over the file's lines of this peptide came out at 142.
Molecule B11 came in with a normalised SPOT signal, Boehringer light units (BLU); mean over the file's lines of this peptide of 32.8.
B12 displayed a normalised SPOT signal, Boehringer light units (BLU); mean over the file's lines of this peptide of 91.2.
Regarding B13, the normalised SPOT signal, Boehringer light units (BLU); mean over the file's lines of this peptide amounted to 57.9.
B14 gave a normalised SPOT signal, Boehringer light units (BLU); mean over the file's lines of this peptide of 21.3.
In the case of B15, the normalised SPOT signal, Boehringer light units (BLU); mean over the file's lines of this peptide amounted to 1280.
With B16, the normalised SPOT signal, Boehringer light units (BLU); mean over the file's lines of this peptide stood at 57.7.
B17: the normalised SPOT signal, Boehringer light units (BLU); mean over the file's lines of this peptide was 0.
B18 displayed a normalised SPOT signal, Boehringer light units (BLU); mean over the file's lines of this peptide of 0.
Molecule B19 registered a normalised SPOT signal, Boehringer light units (BLU); mean over the file's lines of this peptide of 0.
B20: the normalised SPOT signal, Boehringer light units (BLU); mean over the file's lines of this peptide came to 33.6.
Molecule B21 displayed a normalised SPOT signal, Boehringer light units (BLU); mean over the file's lines of this peptide of 46.1.
For the molecule B22, the normalised SPOT signal, Boehringer light units (BLU); mean over the file's lines of this peptide was 29.
Still for that read-out and setting: the result for B23 reads 27.7; that for B24, 894; that for B25, 26.3.
In turn, B26 gave a normalised SPOT signal, Boehringer light units (BLU); mean over the file's lines of this peptide of 120.
The molecule B27 gave a normalised SPOT signal, Boehringer light units (BLU); mean over the file's lines of this peptide of 65.1.
Still for that read-out and setting: the result for B28 reads 41.3.

Another assay has as its target endophilin SH3 (SH3G2_HUMAN), Q99962. The assay is described as follows: SPOT array.
In turn, B1 gave a normalised SPOT signal, Boehringer light units (BLU); mean over the file's lines of this peptide of 50.3.
B2 had a normalised SPOT signal, Boehringer light units (BLU); mean over the file's lines of this peptide of 37.8.
B3: the normalised SPOT signal, Boehringer light units (BLU); mean over the file's lines of this peptide is 75.5.
Take B4: the normalised SPOT signal, Boehringer light units (BLU); mean over the file's lines of this peptide was determined as 16.1.
In the case of B5, the normalised SPOT signal, Boehringer light units (BLU); mean over the file's lines of this peptide was found to be 210.
In the case of B6, the normalised SPOT signal, Boehringer light units (BLU); mean over the file's lines of this peptide was determined as 63.7.
As to B7, the normalised SPOT signal, Boehringer light units (BLU); mean over the file's lines of this peptide came to 32.7.
Still for that read-out and setting: in the case of B8 it was 24.7; in that of B9, 15.9.
Same read-out and setting: in the case of B10 it was 92.5; in that of B11, 106; in that of B12, 47.7.
Take B13: the normalised SPOT signal, Boehringer light units (BLU); mean over the file's lines of this peptide was 398.
Consider B14, for which the normalised SPOT signal, Boehringer light units (BLU); mean over the file's lines of this peptide came to 58.8.
In the case of B15, the normalised SPOT signal, Boehringer light units (BLU); mean over the file's lines of this peptide worked out at 245.
In turn, B16 came in with a normalised SPOT signal, Boehringer light units (BLU); mean over the file's lines of this peptide of 500.
B17: the normalised SPOT signal, Boehringer light units (BLU); mean over the file's lines of this peptide is 32.9.
Molecule B18 displayed a normalised SPOT signal, Boehringer light units (BLU); mean over the file's lines of this peptide of 68.4.
Molecule B19 had a normalised SPOT signal, Boehringer light units (BLU); mean over the file's lines of this peptide of 94.6.
Turning to B20, the normalised SPOT signal, Boehringer light units (BLU); mean over the file's lines of this peptide was 44.
As to B21, the normalised SPOT signal, Boehringer light units (BLU); mean over the file's lines of this peptide turned out to be 1080.
As for B22, the normalised SPOT signal, Boehringer light units (BLU); mean over the file's lines of this peptide worked out at 104.
B23: the normalised SPOT signal, Boehringer light units (BLU); mean over the file's lines of this peptide worked out at 161.
B24 yielded a normalised SPOT signal, Boehringer light units (BLU); mean over the file's lines of this peptide of 211.
The molecule B25 yielded a normalised SPOT signal, Boehringer light units (BLU); mean over the file's lines of this peptide of 32.4.
B26 returned a normalised SPOT signal, Boehringer light units (BLU); mean over the file's lines of this peptide of 351.
B27 came in with a normalised SPOT signal, Boehringer light units (BLU); mean over the file's lines of this peptide of 27.6.
Same read-out and setting: in the case of B28 it was 65.4.
